Laboratory results published in US20040023887A1 (published 2004).
Positions of bridges follow the written chain, without caps; N, C: chain ends. Chains are numbered I, II in the order given. No end group written: not given here.

B1: S423 (peptide)
peptide 1: ESFYDWFERQLGK
peptide 2: ACAWPTYWNCG
modifications: not fully specified (bridges); cysteine pairing not given here; also: C-terminus of chain 2 linked to Lys13 of chain 1, bond at chain A 13 to a chain's C-terminus
B2: S443 (peptide)
peptide 1: ESFYDWFERQLGGGGK
peptide 2: WVQCEVYGRGCPS
modifications: not fully specified (bridges); cysteine pairing not given here; also: C-terminus of chain 2 linked to Lys16 of chain 1, bond at chain A 16 to a chain's C-terminus
B3: S441 (peptide)
peptide 1: ESFYDWFERQLGGGGK
peptide 2: WAWVQCEVYGRGCPS
modifications: not fully specified (bridges); cysteine pairing not given here; also: C-terminus of chain 2 linked to Lys16 of chain 1, bond at chain A 16 to a chain's C-terminus
B4: S442 (peptide)
peptide 1: ESFYDWFERQLGGGGK
peptide 2: AWVQCEVYGRGCPS
modifications: disulfide II:5-II:12 (inferred); also: bond at chain A 16 to a chain's C-terminus
B5: S440 (peptide)
peptide 1: ESFYDWFERQLGGGGK
peptide 2: EWAWVQCEVYGRGCPS
modifications: not fully specified (bridges); cysteine pairing not given here; also: C-terminus of chain 2 linked to Lys16 of chain 1, bond at chain A 16 to a chain's C-terminus
B6: S438 (peptide)
peptide 1: ESFYDWFERQLGGGGK
peptide 2: DQEWAWVQCEVYGRGCPS
modifications: not fully specified (bridges); cysteine pairing not given here; also: C-terminus of chain 2 linked to Lys16 of chain 1, bond at chain A 16 to a chain's C-terminus
B7: S437 (peptide)
peptide 1: ESFYDWFERQLGGGGK
peptide 2: LDQEWAWVQCEVYGRGCPS
modifications: not fully specified (bridges); cysteine pairing not given here; also: C-terminus of chain 2 linked to Lys16 of chain 1, bond at chain A 16 to a chain's C-terminus
B8: S439 (peptide)
peptide 1: ESFYDWFERQLGGGGK
peptide 2: QEWAWVQCEVYGRGCPS
modifications: not fully specified (bridges); cysteine pairing not given here; also: C-terminus of chain 2 linked to Lys16 of chain 1, bond at chain A 16 to a chain's C-terminus
B9: S433 (peptide)
peptide 1: ESFYDWFERQLGGGGK
peptide 2: WLDQEWAWVQ
modifications: also: C-terminus of chain 2 linked to Lys16 of chain 1, bond at chain A 16 to a chain's C-terminus
B10: S444 (peptide)
peptide 1: ESFYDWFERQLGGGGK
peptide 2: VQCEVYGRGCPS
modifications: not fully specified (bridges); cysteine pairing not given here; also: C-C branched: chain 2 C-terminus bonded to Lys16 side chain
B11: S432 (peptide)
peptide 1: ESFYDWFERQLGGGGK
peptide 2: CEVYGRGCPS
modifications: not fully specified (bridges); cysteine pairing not given here; also: C-terminus of chain 2 linked to Lys16 of chain 1, bond at chain A 16 to a chain's C-terminus
B12: S415 (peptide)
peptide: ESFYDWFERQLGKX
chain: ESFYDWFERQLGKX
modifications: not fully specified; C-terminus joined to chemical linker 23 of Table 3; C-C linked dimer
notes: Synthetic truncated RP9 homodimer
B13: B6L-3-G5-IR (peptide)
peptide: AETSAQVGWQRLWSVWPGDHWSTLDPFYHKLSELLRESGA
notes: library tags and phage coat protein not included
B14: 40F-4-B1-IGFR (peptide)
peptide: GLDHSDAVGVHLGFAWPAQARGRWEAGGLEDTWAGYDWL
notes: tags and coat protein not included; Formula 10 (Group 6) clone
B15: 40F-4-D1-IGFR (peptide)
peptide: LSCLAYSRHGIWRPSTDLGLGRSVGEGSVSTRWRGYDWFE
notes: as for B14
B16: R20β-4-E8-IR (peptide)
peptide: VRGFQGGTVWPGYEWLRNAA
notes: as for B14
B17: B6Hα-3-F1-IR (peptide)
peptide: CSMAAVAEAGDDDDPFYHKLSELCQGS
notes: as for B13

Target: T1, human insulin receptor (HIR) (human, UniProt P06213-2 28-1370, limits assumed)
T1 construct: detergent-solubilised receptor
Assay: 125I-insulin competition on purified HIR

Going from TFYSCLASLLTGTPQPNRGPWERCRKK [S327] to GSLDESFYDWFERQL [S395], the Kd rises from 21 nM to 81 nM (3.9-fold).

GIISQSCPESFYDWFAGQVSDPWWCW (also called G33) [S326] showed a Kd of 590 nM.

Target: T2, human insulin receptor (HIR) (human, UniProt P06213-2 28-1370, limits assumed)
T2 construct: Also used for the WGA-purified recombinant human insulin receptor of the kinase assay
Assay: 125I-insulin competition on purified HIR

Compared with B1, B2 is 2.7-fold higher in Kd: 62 nM for the first, 170 nM for the second. The first binds more tightly here.

B3 and LDQEWAVQCEVYGRGCPSESFYDWFERQLG [S484] are within 1.5-fold of each other in Kd: 120 nM for the first, 87 nM for the second.

First: B4
Second: B5
The Kd of the first is 1.6-fold higher: 160 nM for the first, 99 nM for the second. The second binds more tightly here.

First: B6
Second: B7
The Kd of the first is 43-fold higher: 30 nM for the first, 0.69 nM for the second. The second binds more tightly here.

Compared with B8, B9 is 2.4-fold higher in Kd: 46 nM for the first, 110 nM for the second.

B10 and B11 are within 1.5-fold of each other in Kd: 190 nM for the first, 180 nM for the second.

Target: T3, human insulin receptor (HIR), purified from transfected cells after solubilization with Triton X-100 (human, UniProt P06213-2 28-1370, limits assumed)
T3 construct: mature
Assay: competition with 125I-insulin on solubilized HIR, PEG precipitation

B12 gave a Kd of 100 nM.

Target: T4, Insulin receptor prepared according to Bass et al., 1996 (soluble IR-immunoglobulin chimera) (human, UniProt P06213 28-956)
T4 construct: extracellular domain; also called sIR-Fc; soluble IR (Bass construct); not shown: immunoglobulin constant domains replacing the transmembrane and intracellular domains
Assay: phage ELISA, receptor coated on plate; A405 over non-fat milk

Compared with B13, B14 is lower in “ratio over background (IR)” value: 1.4 fold over background for the first, 0.2 fold over background for the second.

Compared with B15, B16 is higher in “ratio over background (IR)” value: 0.3 fold over background for the first, 3.6 fold over background for the second.

B17 was tested, and the “ratio over background (IR)” value was 1.3 fold over background.

Target: T5, Soluble IGF-1R (R&D Systems, Cat. # 391-GR/CF) (human, UniProt P08069 31-935)
T5 construct: extracellular domain; the precursor is cleaved into alpha and beta subunits; also called sIGF-1R
Assay: as above

Going from B13 to B14, the “ratio over background (IGF-1R)” value rises from 2 fold over background to 3 fold over background.

First: B15
Second: B16
The “ratio over background (IGF-1R)” value of the first is lower: 4.6 fold over background for the first, 34.9 fold over background for the second.

For B17, the “ratio over background (IGF-1R)” value was 2.4 fold over background.

Target: T6, soluble human insulin receptor-immunoglobulin heavy chain chimera (sIR-Fc) (human, UniProt P06213 28-956, limits assumed, Eu3+ (LANCE) labelled in the TR-FRET assays)
T6 construct: extracellular domain; also called HIR-immunoglobulin heavy chain chimera; not shown: immunoglobulin heavy chain constant domains
Assay: FP competition, label FITC-RP9, sIR-Fc

GSLDESFYDWFERQLGKK (also called S371) [RP9] was tested, and the IC50 was 10 nM.

Target: T5, Soluble IGF-1R (R&D Systems, Cat. # …)
Assay: phage ELISA; IGF-1R ratio divided by IR ratio

B13 was tested, and the IGF-1R/IR ratio comparison was 1.4 ratio.

Target: Insulin Receptor (IR) (UniProt P06213 28-956, limits assumed)
Assay: BIAcore competition: IR pre-incubated with about 40 µM peptide, residual binding to immobilised insulin
Experimental: Flowcell-1 was used for background binding to correct for any non-specific binding. […] The surface was regenerated with 25 mM NaOH.

Going from KWLDQEWAWVQCEVYGRGCPSKK [D8 (synthetic peptide)] to VTFTSAVFHENFYDWFVRQVS [H2], the “% Binding” value falls from 33% to 27%.

Going from LCQSWGVRIGWLTGLCP [2A9] to DRAFYNGLRDLVGAVYGAWD [20C11], the “% Binding” value falls from 100% to 38%.

Compared with KWLDQEWAWVQCEVYGRGCPSKK [D8 (synthetic peptide)], VTFTSAVFHENFYDWFVRQVS [H2] is lower in “Result (RUs)” value: 41.6 RU for the first, 34.6 RU for the second.

Going from LCQSWGVRIGWLTGLCP [2A9] to DRAFYNGLRDLVGAVYGAWD [20C11], the “Result (RUs)” value falls from 128 RU to 49 RU.

Target: T6, soluble human insulin …
Assay: TR-FRET competition, label b-RP9, Eu-sIR-Fc

In the case of GSLDESFYDWFERQLGKK (also called S371) [RP9], the IC50 is reported as 42 nM.

Target: T7, soluble HIR ectodomain (sIR) (human, UniProt P06213-2 28-944, limits assumed)
T7 construct: extracellular domain
Assay: FP competition, label FITC-RP9, sIR

Binder GSLDESFYDWFERQLGKK (also called S371) [RP9] has an IC50 of 0.03 nM.

Target: T6, soluble human insulin …
Assay: TR-FRET competition, label b-S175, Eu-sIR-Fc

In the case of GSLDESFYDWFERQLGKK (also called S371) [RP9], the IC50 is reported as 6 nM.

Target: T2, human insulin receptor (HIR)
Assay: radio-receptor assay, label 125I-insulin, HIR

GSLDESFYDWFERQLGKK (also called S371) [RP9] was tested, and the IC50 was 44 nM.
